{"source": "patent US10718784B2", "about": "“Mitochondrial preproteins as markers for Alzheimer's disease” (Albert-Ludwigs-Universität Freiburg, priority 2014, dated 2020)", "molecules": {"B1": {"name": "cell-free translated Cym1 protein: yeast PreP homolog Cym1 synthesized in vitro using the RTS wheat germ system (protein)", "chain": "MLRFQRFASSYAQAQAVRKYPVGGIFHGYEVRRILPVPELRLTAVDLVHSQTGAEHLHIDRDDKNNVFSIAFKTNPPDSTGVPHILEHTTLCGSVKYPVRDPFFKMLNKSLANFMNAMTGPDYTFFPFSTTNPQDFANLRGVYLDSTLNPLLKQEDFDQEGWRLEHKNITDPESNIVFKGVVYNEMKGQISNANYYFWSKFQQSIYPSLNNSGGDPMKITDLRYGDLLDFHHKNYHPSNAKTFTYGNLPLVDTLKQLNEQFSGYGKRARKDKLLMPIDLKKDIDVKLLGQIDTMLPPEKQTKASMTWICGAPQDTYDTFLLKVLGNLLMDGHSSVMYQKLIESGIGLEFSVNSGVEPTTAVNLLTVGIQGVSDIEIFKDTVNNIFQNLLETEHPFDRKRIDAIIEQLELSKKDQKADFGLQLLYSILPGWTNKIDPFESLLFEDVLQRFRGDLETKGDTLFQDLIRKYIVHKPCFTFSIQGSEEFSKSLDDEEQTRLREKITALDEQDKKNIFKRGILLQEKQNEKEDLSCLPTLQIKDIPRAGDKYSIEQKNNTMSRITDTNGITYVRGKRLLNDIIPFELFPYLPLFAESLTNLGTTTESFSEIEDQIKLHTGGISTHVEVTSDPNTTEPRLIFGFDGWSLNSKTDHIFEFWSKILLETDFHKNSDKLKVLIRLLASSNTSSVADAGHAFARGYSAAHYRSSGAINETLNGIEQLQFINRLHSLLDNEETFQREVVDKLTELQKYIVDTNNMNFFITSDSDVQAKTVESQISKFMERLPHGSCLPNGPKTSDYPLIGSKCKHTLIKFPFQVHYTSQALLGVPYTHKDGSALQVMSNMLTFKHLHREVREKGGAYGGGASYSALAGIFSFYSYRDPQPLKSLETFKNSGRYILNDAKWGVTDLDEAKLTIFQQVDAPKSPKGEGVTYFMSGVTDDMKQARREQLLDVSLLDVHRVAEKYLLNKEGVSTVIGPGIEGKTVSPNWEVKEL"}}, "key": {"Cym1": {"biological_target": "T1, Cym1 (Saccharomyces cerevisiae, UniProt P32898)", "T1 construct": "endogenous in cells; host or cells: soluble extract of wild-type S. cerevisiae mitochondria (cym1Δ extract as control)", "T1 sequence (P32898 17-989)": "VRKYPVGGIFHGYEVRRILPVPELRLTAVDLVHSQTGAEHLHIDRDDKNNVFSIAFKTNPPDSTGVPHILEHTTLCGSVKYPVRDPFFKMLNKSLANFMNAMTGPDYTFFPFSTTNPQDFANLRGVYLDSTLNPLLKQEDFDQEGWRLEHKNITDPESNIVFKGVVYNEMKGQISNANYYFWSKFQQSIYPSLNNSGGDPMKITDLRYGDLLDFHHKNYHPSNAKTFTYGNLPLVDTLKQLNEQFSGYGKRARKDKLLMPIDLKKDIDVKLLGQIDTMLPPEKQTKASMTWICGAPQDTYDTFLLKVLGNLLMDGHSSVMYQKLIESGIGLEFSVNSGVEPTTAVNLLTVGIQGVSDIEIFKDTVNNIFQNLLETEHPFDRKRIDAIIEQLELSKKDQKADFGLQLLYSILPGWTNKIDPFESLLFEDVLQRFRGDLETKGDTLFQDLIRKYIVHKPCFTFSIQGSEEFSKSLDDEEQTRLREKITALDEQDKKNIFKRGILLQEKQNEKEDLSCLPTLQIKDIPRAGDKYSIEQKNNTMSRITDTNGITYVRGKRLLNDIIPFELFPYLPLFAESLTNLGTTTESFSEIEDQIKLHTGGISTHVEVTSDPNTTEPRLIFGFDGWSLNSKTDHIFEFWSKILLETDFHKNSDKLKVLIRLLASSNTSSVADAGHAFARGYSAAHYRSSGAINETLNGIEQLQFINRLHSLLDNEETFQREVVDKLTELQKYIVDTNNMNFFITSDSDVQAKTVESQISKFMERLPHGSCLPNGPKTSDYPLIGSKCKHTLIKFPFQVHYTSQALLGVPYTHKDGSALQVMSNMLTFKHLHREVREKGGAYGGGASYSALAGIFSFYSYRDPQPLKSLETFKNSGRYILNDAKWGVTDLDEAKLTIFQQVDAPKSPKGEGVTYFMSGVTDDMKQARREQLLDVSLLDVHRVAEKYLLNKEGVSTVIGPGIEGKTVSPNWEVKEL", "assay": "Peptide degradation assay in soluble mitochondrial extracts", "type": "biochemical, yeast", "description": "(§1) Isolated mitochondria from yeast strains grown under respiratory conditions were washed with SEM buffer, re-isolated and resuspended in reaction buffer (250 mM sucrose, 10 mM MOPS/KOH, pH 7.2, 80 mM KCl, 5 mM MgCl2, 5 mM KH2PO4) to a concentration of 3 μg/μl. Mitochondria were subjected to sonication (five times 30 s with 30 s breaks on ice, Sonifier250, Branson) followed by centrifugation at 100,000×g for 45 min at 4° C. The obtained supernatant was used for processing and degradation experiments. 0.5 μl of radiolabelled precursor protein and/or various peptides in different concentrations were added to 9 μl of yeast soluble mitochondrial extracts. Reactions were stopped by addition of 4× Laemmli buffer (8% (w/v) SDS, 0.08% (w/v) bromophenol blue, 40% (v/v) glycerol, 240 mM Tris/HCl, pH 6.8) containing 5% (v/v) β-mercaptoethanol and analyzed by SDS-PAGE followed by autoradiography and immunodecoration. Radiolabelled precursor proteins were synthesized with the transcription/translation rabbit reticulate lysate system (Promega) in the presence of ^35S-methionine. Chemical amounts of Cym1 and control protein (Oct1) were synthesized in vitro using the RTS wheat germ system (5 PRIME). 0.5 μl of cell-free translation product was used in the processing assays."}, "Purified yeast MPP": {"biological_target": "T2, Purified yeast MPP (Saccharomyces cerevisiae, UniProt P10507+P11914)", "T2 construct": "poly-histidine (N); made in house; host or cells: E. coli BL21, plasmid pVG18", "assay": "MPP activity assay: processing of [35S]F1β precursor by purified MPP", "type": "biochemical, S. cerevisiae", "conditions": "radiolabelled F1β precursor, increasing peptide concentrations", "description": "E. coli BL21 cells were transformed with plasmid pVG18 (32) that enables the transcription of a single mRNA encoding both β- (with N-terminal poly-histidine tag) and α-MPP subunits (Mas1 and Mas2) from S. cerevisiae. Cell cultures were grown in LB medium (10 g/l tryptone, 5 g/l yeast extract, 10 g/l NaCl) containing 100 μg/ml ampicillin at 37° C. to an OD600 of 0.6. Expression was induced by addition of 1 mM IPTG (Isopropyl β-D-1-thiogalactopyranoside, Formedium) for 4 h. Cells were harvested and snap-frozen in liquid nitrogen. Pellets were resuspended in binding buffer (20 mM Na3PO4, 200 mM NaCl, 20 mM imidazole, pH 7.4) containing 1 mg/ml lysozyme (Sigma) and 10 μg/ml DNaseI (Sigma) and incubated for 1 h at 4° C. for cell lysis. The cell extract was centrifuged at 4000×g to remove unbroken cells. The supernatant was further centrifuged at 100,000×g for 30 min at 4° C. The obtained supernatant was incubated with Ni-NTA resin (Qiagen) for 3 h at 4° C. The resin was washed four times with binding buffer. Bound proteins were eluted with Elution buffer (20 mM Na3PO4, 200 mM NaCl, 200 mM imidazole, pH 7.4). […]\nPurified yeast MPP (0.15 μg protein) was incubated in processing buffer (10 mM HEPES/KOH, pH 7.4, 0.1 mM MnCl2, 1 mM DTT, 0.1 mg/ml BSA) for 15 min at 30° C. […] The samples were analyzed by SDS-PAGE followed by autoradiography. Bands were quantified using the Multi Gauge software (Fuji Film). […]"}, "MPP": {"biological_target": "T3, MPP (Saccharomyces cerevisiae, UniProt P10507+P11914)", "T3 construct": "endogenous in cells; host or cells: soluble extract of mitochondria isolated from S. cerevisiae strains (wild-type, cym1Δ)", "T3 sequence (P10507 21-462)": "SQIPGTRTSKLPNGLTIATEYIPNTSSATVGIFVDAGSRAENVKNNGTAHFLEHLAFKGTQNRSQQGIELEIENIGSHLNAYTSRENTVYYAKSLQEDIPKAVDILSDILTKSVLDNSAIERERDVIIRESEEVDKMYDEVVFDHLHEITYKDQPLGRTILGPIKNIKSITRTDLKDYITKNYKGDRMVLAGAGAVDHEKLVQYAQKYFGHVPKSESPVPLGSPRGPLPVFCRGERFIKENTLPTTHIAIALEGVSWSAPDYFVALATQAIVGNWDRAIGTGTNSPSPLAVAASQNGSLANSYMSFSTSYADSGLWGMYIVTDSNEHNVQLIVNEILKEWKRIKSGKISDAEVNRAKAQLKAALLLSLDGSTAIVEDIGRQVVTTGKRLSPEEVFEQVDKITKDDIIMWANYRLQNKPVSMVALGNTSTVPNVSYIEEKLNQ", "T3 sequence (P11914 14-482)": "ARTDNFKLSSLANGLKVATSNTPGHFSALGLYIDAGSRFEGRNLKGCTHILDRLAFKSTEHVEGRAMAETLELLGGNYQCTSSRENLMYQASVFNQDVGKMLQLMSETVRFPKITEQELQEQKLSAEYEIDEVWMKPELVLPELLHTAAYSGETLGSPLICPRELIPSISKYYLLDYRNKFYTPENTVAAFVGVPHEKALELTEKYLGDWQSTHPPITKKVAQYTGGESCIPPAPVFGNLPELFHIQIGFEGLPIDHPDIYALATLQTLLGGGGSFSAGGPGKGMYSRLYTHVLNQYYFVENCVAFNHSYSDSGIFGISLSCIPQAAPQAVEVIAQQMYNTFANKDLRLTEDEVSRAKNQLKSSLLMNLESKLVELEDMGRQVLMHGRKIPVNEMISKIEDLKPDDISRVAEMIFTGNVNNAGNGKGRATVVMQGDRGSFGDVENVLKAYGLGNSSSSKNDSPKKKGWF", "assay": "In vitro processing of [35S]Sod2 precursor in yeast soluble mitochondrial extracts", "type": "biochemical", "description": "as §1"}, "Oct1": {"biological_target": "T4, Oct1 (Saccharomyces cerevisiae, UniProt P35999)", "T4 construct": "endogenous in cells; host or cells: soluble extract of wild-type and cym1Δ S. cerevisiae mitochondria", "T4 sequence (P35999 38-772)": "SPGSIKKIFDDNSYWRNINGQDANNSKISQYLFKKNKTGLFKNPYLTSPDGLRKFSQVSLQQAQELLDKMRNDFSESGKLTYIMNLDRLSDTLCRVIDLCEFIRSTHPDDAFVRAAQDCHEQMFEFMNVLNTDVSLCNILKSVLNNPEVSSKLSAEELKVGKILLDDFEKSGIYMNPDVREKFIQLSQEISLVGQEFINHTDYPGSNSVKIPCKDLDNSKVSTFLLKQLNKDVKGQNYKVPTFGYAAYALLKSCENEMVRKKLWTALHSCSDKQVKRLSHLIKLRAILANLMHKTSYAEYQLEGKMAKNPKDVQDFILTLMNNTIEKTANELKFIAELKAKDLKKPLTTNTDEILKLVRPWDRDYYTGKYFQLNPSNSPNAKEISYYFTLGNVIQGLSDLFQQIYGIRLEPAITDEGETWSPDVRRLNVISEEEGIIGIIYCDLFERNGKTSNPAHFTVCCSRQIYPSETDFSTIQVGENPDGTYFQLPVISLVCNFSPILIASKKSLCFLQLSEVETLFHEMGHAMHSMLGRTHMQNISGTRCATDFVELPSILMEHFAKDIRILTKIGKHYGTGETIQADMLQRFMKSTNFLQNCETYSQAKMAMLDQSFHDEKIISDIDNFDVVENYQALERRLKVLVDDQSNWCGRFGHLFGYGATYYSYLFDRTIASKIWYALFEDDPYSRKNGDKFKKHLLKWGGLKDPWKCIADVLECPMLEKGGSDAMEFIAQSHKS", "assay": "In vitro processing of [35S]Cox4 precursor in yeast mitochondrial extract in the presence of octapeptides", "type": "biochemical", "conditions": "cym1Δ mitochondrial extract", "description": "as §1"}}, "data": [{"molecule": "Aβ^scrambled: scrambled Aβ peptide KVKGLIDGDHIGDLVYEFMDSNSAIFREGVGAGHVHVAQVEF (SEQ ID No.: 19)", "values": [{"measurement": "Effect on Cox4 presequence peptide degradation", "setting": "Cym1; WT soluble mitochondrial extract, 10 μM Cox4 presequence peptide in each reaction", "result": "not"}]}, {"molecule": "Cox4^preseq.: typical presequence peptide MLSLRQSIRFFKPATRTLCSSRYLL (SEQ ID No.: 15)", "values": [{"measurement": "Processing activity of purified MPP on F1β precursor in the presence of peptide", "setting": "Purified yeast MPP", "result": "able to inhibit purified MPP"}, {"measurement": "In vitro processing of radiolabelled Sod2 precursor by MPP in the presence of presequence peptide", "setting": "MPP; cym1Δ mitochondrial extract (absence of Cym1), 10 μM Cox4 presequence peptide", "result": "efficiently blocked"}, {"measurement": "Degradation of the peptide in wild-type mitochondrial extract", "setting": "Cym1; wild-type (WT) extract, peptide 10 μM", "result": "Rapid degradation"}]}, {"molecule": "octapeptides: octapeptide derived from the Oct1 substrate Sdh1, FTSSALVR (SEQ ID No.: 16), EZ Biolab", "values": [{"measurement": "Processing activity of purified MPP on F1β precursor in the presence of peptide", "setting": "Purified yeast MPP", "result": "not affected"}, {"measurement": "Oct1-dependent processing step of Cox4 precursor in the presence of octapeptides", "setting": "Oct1", "result": "specific impairment of the Oct1-dependent processing step"}]}, {"molecule": "B1", "values": [{"measurement": "MPP processing activity (Sod2 precursor) after addition of Cym1 protein", "setting": "MPP; cym1Δ mitochondrial extract", "result": "could be restored"}]}]}
